Patent US20150301024

B1: recombinant human caspase 7 (protein)
chain: AKPDRSSFVPSLFSKKKKNVTMRSIKTTRDRVPTYQYNMNFEKLGKCIIINNKNFDKVTGMGVRNGTDKDAEALFKCFRSLGFDVIVYNDCSCAKMQDLLKKASEEDHTNAACFACILLSHGEENVIYGKDGVTPIKDLTAHFRGDRCKTLLEKPKLFFIQACRGTELDDGIQADSGPINDTDANPRYKIPVEADFLFAYSTVPGYYSWRSPGRGSWFVQALCSILEEHGKDLEIMQILTRVNDRVARHFESQSDDPHFHEKKQIPCVVSMLTKELYFSQ
B2: recombinant human caspase 3 (protein)
chain: SGISLDNSYKMDYPEMGLCIIINNKNFHKSTGMTSRSGTDVDAANLRETFRNLKYEVRNKNDLTREEIVELMRDVSKEDHSKRSSFVCVLLSHGEEGIIFGTNGPVDLKKITNFFRGDRCRSLTGKPKLFIIQACRGTELDCGIETDSGVDDDMACHKIPVEADFLYAYSTAPGYYSWRNSKDGSWFIQSLCAMLKQYADKLEFMHILTRVNRKVATEFESFSFDATFHAKKQIPCIVSMLTKELYFYH

Target: hXkr8-GFP (wild-type human Xkr8 fused to GFP at its C-terminus)

Protein | cleavage of the GFP-fusion protein, Western blot with anti-GFP
B1 | caspase 3 and caspase 7 cleaved the wild-type but not 2DA mutant hXkr8
B2 | caspase 3 and caspase 7 cleaved the wild-type but not 2DA mutant hXkr8
